# Data as given in patent US20210032312A1 (Janssen / Centocor, published 2021).
# Columns and labels:
# [1] = biological target: T1, human CD8 alpha (CD8A) on primary human CD8+ T cells (human, UniProt P01732 22-235); assay: flow cytometry, human CD8+ T cells
# T1 construct: whole, on cells; also called hCD8A
# Description: (§1) Binding of the 190 ELISA hits to human and cynomologous monkey primary CD8 T cells was assessed by flow cytometry. The FN3 domain molecules were diluted to 2 μM and 0.2 μM in PBS and incubated with human or cynomologous monkey CD8+ T cells in 96-well format. After 1 hour at 4 C, the cells were washed once with PBS and then resuspended with an anti-FN3 domain antibody (PAB25) solution. Following this incubation, the cells were washed twice with PBS and a PE conjugated secondary antibody and a viability dye were added. Finally, cells were washed and resuspended in PBS for flow cytometric analysis using a BD Canto Instrument. Cells were gating on live cells and median fluorescence intensity of the bound Centyrins (PE channel) was calculated using Cytobank software.
# human CD8A-Fc (in house) = biological target: T2, human CD8A-Fc (in house) (human, UniProt P01732 22-182, limits assumed); assay: SPR (ProteOn), captured hCD8A-Fc
# T2 construct: captured by goat anti-human Fc on the ProteOn chip; also called hCD8A-Fc; recombinant human CD8 alpha; not shown: linker/tag and Fc of human IgG1
# [2] = biological target: T3, cynomolgus monkey CD8 alpha on primary cynomolgus CD8+ T cells (cynomolgus monkey, UniProt P01732 23-235 (human entry)); assay: flow cytometry, cyno CD8+ T cells
# T3 construct: also called Cyno CD8alpha; cyno CD8A
# Description: as §1
# T1 sequence (P01732 22-235): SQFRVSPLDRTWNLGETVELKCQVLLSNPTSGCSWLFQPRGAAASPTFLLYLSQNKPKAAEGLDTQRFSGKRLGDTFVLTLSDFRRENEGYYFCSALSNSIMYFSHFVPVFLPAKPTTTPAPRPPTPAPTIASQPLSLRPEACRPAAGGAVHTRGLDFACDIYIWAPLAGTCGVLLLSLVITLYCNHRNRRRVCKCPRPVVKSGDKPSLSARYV
# T3 sequence (P01732 other isoform, or with tags, fused parts or gaps limits assumed): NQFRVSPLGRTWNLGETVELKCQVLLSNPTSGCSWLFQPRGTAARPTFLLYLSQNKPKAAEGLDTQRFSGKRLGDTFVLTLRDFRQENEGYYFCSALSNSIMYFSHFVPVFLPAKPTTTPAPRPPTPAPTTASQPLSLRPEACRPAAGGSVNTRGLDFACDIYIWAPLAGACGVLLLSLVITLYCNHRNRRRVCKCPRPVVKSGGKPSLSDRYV
# T2 sequence (P01732 22-182 limits assumed): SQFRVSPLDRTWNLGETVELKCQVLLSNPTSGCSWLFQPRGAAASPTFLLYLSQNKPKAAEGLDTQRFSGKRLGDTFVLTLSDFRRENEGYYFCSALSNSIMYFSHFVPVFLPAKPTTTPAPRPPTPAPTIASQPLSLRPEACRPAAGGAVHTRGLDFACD
Binder,Human T-cell Binding 0.2 uM (MFI) [1] [MFI],Human T-cell Binding 2 uM (MFI) [1] [MFI],koff (human CD8A-Fc (in house)) [s⁻¹],Cyno T-cell Binding 0.2 uM (MFI) [2] [MFI],Cyno T-cell Binding 2 uM (MFI) [2] [MFI]
"P283GR7P1367_B4 (designed binder, FN3 domain) LPAPKNLVVSRVTEDSARLSWTAPDAAFDSFSILYYELPPSGEAIVLTVPGSERSYDLTGLKPGTEYTVSIFGVKGGDNSFPLSAIFTT",446,8300,0.00518,367,396
"P283FR9P1366_D12 (designed binder, FN3 domain) LPAPKNLVVSRVTEDSARLSWTAPDAAFDSFDIAYPEWPLGGEAIVLTVPGSERSYDLTGLKPGTEYWVIILGVKGGDQSWPLSAIFTT",1530,27800,0.00176,8140,87600
"P283GR7P1367_H2 (designed binder, FN3 domain) LPAPKNLVVSRVTEDSARLSWTAPDAAFDSFDIAYPEWPTDGEAIVLTVPGSERSYDLTGLKPGTEYFVVIYGVKGGGRSYPLSAIFTT",390,1620,0.00235,864,4210
"P283FR9P1366_H3 (designed binder, FN3 domain) LPAPKNLVVSRVTEDSARLSWTAPDAAFDSFAIAYPEWPIKGEAIVLTVPGSERSYDLTGLKPGTEYWVVIYGVKGGVFSEPLSAIFTT",632,7670,0.00121,3170,40800
"P283GR7P1367_C9 (designed binder, FN3 domain) LPAPKNLVVSRVTEDSARLSWTAPDAAFDSFLIGYPEWPLGGEAIVLTVPGSERSYDLTGLKPGTEYWVIIYGVKGGEYSDPLSAIFTT",896,11000,0.00221,5550,67000
"P283FR9P1366_H7 (designed binder, FN3 domain) LPAPKNLVVSRVTEDSARLSWTAPDAAFDSFQIAYPEYPALGEAIVLTVPGSERSYDLTGLKPGTEYFVIIAGVKGGIQSWPLSAIFTT",567,13800,0.00177,1240,24400
"P283FR9P1366_F8 (designed binder, FN3 domain) LPAPKNLVVSRVTEDSARLSWTAPDAAFDSFAIAYPEIAKWGEAIVLTVPGSERSYDLTGLKPGTEYFVIIYGVKGGVHSFPLSAIFTT",369,3970,0.00403,2270,27000
"P283FR9P1366_H10 (designed binder, FN3 domain) LPAPKNLVVSRVTEDSARLSWTAPDAAFDSFNIAYPEWPPEGEAIVLTVPGSERSYDLTGLKPGTEYFVVIYGVKGGHLSDPLSAIFTT",2410,25000,0.00063,13900,75200
"P283GR7P1367_F5 (designed binder, FN3 domain) LPAPKNLVVSRVTEDSARLSWTAPDAAFDSFDIAYPEWPTDGEAIVLTVPGSERSYDLTGLKPGTEYFVIIYGVKGGALSRPLSAIFTT",601,4560,0.00108,2050,29000
"P283FR9P1366_H8 (designed binder, FN3 domain) LPAPKNLVVSRVTEDSARLSWTAPDAAFDSFYISYPEWPGSGEAIVLTVPGSERSYDLTGLKPGTEYAVFIWCVKGGWLSDPLSAIFTT",4540,24900,0.000175,17100,61300
"P283GR7P1367_B7 (designed binder, FN3 domain) LPAPKNLVVSRVTEDSARLSWTAPDAAFDSFDIAYPEWPTDGEAIVLTVPGSERSYDLTGLKPGTEYFVVIYGVKGGHWSYPLSAIFTT",739,10900,0.00127,3130,37500
"P283FR9P1366_F5 (designed binder, FN3 domain) LPAPKNLVVSRVTEDSARLSWTAPDAAFDSFDIGYPEWPIKGEAIVLTVPGSERSYDLTGLKPGTEYWVIIWGVKGGDRSEPLSAIFTT",720,6880,0.00104,4700,46400
"P283GR7P1367_H9 (designed binder, FN3 domain) LPAPKNLVVSRVTEDSARLSWTAPDAAFDSFDIAYPEWPTDGEAIVLTVPGSERSYDLTGLKPGTEYFVVIYGVKGGGRSAPLSAIFTT",434,1710,0.00147,918,6120
"P283FR9P1366_F9 (designed binder, FN3 domain) LPAPKNLVVSRVTEDSARLSWTAPDAAFDSFHIFYPELPIAGEAIVLTVPGSERSYDLTGLKPGTEYWVNISGVKGGYESWPLSAIFTT",6300,33600,0.000494,24600,84300
"P283FR9P1366_E11 (designed binder, FN3 domain) LPAPKNLVVSRVTEDSARLSWTAPDAAFDSFDIAYPEWPVPGEAIVLTVPGSERSYDLTGLKPGTEYWVIIKGVKGGNISWPLSAIFTT",567,4590,0.00141,1470,14200
"P283FR9P1366_G5 (designed binder, FN3 domain) LPAPKNLVVSRVTEDSARLSWTAPDAAFDSFQIAYPEYPALGEAIVLTVPGSERSYDLTGLKPGTEYFVIIIGVKGGDESFPLSAIFTT",261,8450,0.000705,369,36400
"P283FR9P1366_H9 (designed binder, FN3 domain) LPAPKNLVVSRVTEDSARLSWTAPDAAFDSFEIAYPEWPVNGEAIVLTVPGSERSYDLTGLKPGTEYWVVIWGVKGGVNSYPLSAIFTT",693,8570,0.00198,2880,36500
"P283FR9P1366_H6 (designed binder, FN3 domain) LPAPKNLVVSRVTEDSARLSWTAPDAAFDSFDIAYPEWPVTGEAIVLTVPGSERSYDLTGLKPGTEYWVIIFGVKGGERSWPLSAIFTT",7130,43900,0.000205,19000,81500
"P283GR7P1367_A11 (designed binder, FN3 domain) LPAPKNLVVSRVTEDSARLSWTAPDAAFDSFDIAYPEWPTDGEAIVLTVPGSERSYDLTGLKPGTEYFVIIYGVKGGSYSEPLSAIFTT",1030,11300,0.000635,5670,66700
"P283FR9P1366_G8 (designed binder, FN3 domain) LPAPKNLVVSRVTEDSARLSWTAPDAAFDSFDIAYPELPIGGEAIVLTVPGSERSYDLTGLKPGTEYFVVIYGVKGGIHSAPLSAIFTT",574,6860,0.00108,3130,37100
"P283FR9P1366_G1 (designed binder, FN3 domain) LPAPKNLVVSRVTEDSARLSWTAPDAAFDSFYISYPELPVEGEAIVLTVPGSERSYDLTGLKPGTEYWVIIWGVKGGATSEPLSAIFTT",650,3600,0.000872,4980,39800
"P283GR7P1367_B9 (designed binder, FN3 domain) LPAPKNLVVSRVTEDSARLSWTAPDAAFDSFEIWYHEYHPRGEAIVLTVPSSERSYDLTGLKPGTEYDVVISGVKGGHWSYPLSAIFTT",1090,11200,0.00116,442,2920
"P283FR9P1366_H5 (designed binder, FN3 domain) LPAPKNLVVSRVTEDSARLSWTAPDAAFDSFIYIENKVNGEAIVLTVPGSERSYDLTGLKPGTEYHVTIGGVKGGTESNTLSAIFTT",252,3140,0.00318,477,5090
